Laboratory results from article PMC11378909, “Thr^4 phosphorylation on RNA Pol II occurs at early transcription regulating 3′-end processing” (Science Advances, 2024).
Like-named read-outs stand apart in the source and are kept apart here. One block for each molecule: values may come before it. Where no end group is shown, it is not given here.

Key:
[1] = target: FITC-labeled pThr4 CTD peptide (16-mer, single phosphorylation at Thr4); experiment: fluorescence polarisation; CID protein titrated into 10 nM FITC-peptide; 50 mM Tris (pH 8.0), 300 mM NaCl, 10 mM BME; room temperature; triplicate; total binding model
[2] = target: FITC-labeled pSer2 CTD peptide (16-mer, single phosphorylation at Ser2); experiment: as above
[3] = target: FITC-labeled pThr4 CTD peptide (16-mer, single phosphorylation at Thr4); experiment: fluorescence anisotropy (FA); settings: read at the highest protein concentration, 100 µM, read off a plot
[4] = target: FITC-labeled pSer2 CTD peptide (16-mer, single phosphorylation at Ser2); experiment: fluorescence anisotropy (FA); settings: read at the highest protein concentration, 100 µM, read off a plot
pThr^4 (6D7) antibody = experiment: Dot blot of pThr^4 CTD peptide after kinase treatment; type: biochemical; settings: pThr^4 CTD peptide (18-mer), 10 μg or 5 μg, kinase-treated vs no-kinase control (fig. S1C)
Text: Another reported Thr^4 antibody masking effect in vitro is observed when Ser^2, two residues upstream of pThr^4, is phosphorylated (pSer^2Pro^3pThr^4Ser^5). Despite the in vitro blocking effect, this potential impediment posed to pThr^4 identification is less concerning under physiological conditions as pSer^2/pThr^4 double phosphorylation is rather rare in cells ([19]). Subsequent biochemical and cellular experiments have shown that, although Ser^2 and Thr^4 phosphorylations occur around the same time during transcription cycle, they tend to occur on different heptads because kinases avoid placing a phosphate on the neighboring Ser^2 when Thr^4 is phosphorylated and vice versa ([19]). […]
Another phosphorylation mark co-occurring with Thr^4 on the same heptad is Tyr1 (accounts for ~5% of doubly phosphorylated heptads) ([19]). […] To corroborate this, we evaluated the possibility that Tyr1 phosphorylation affects pThr^4 detection by treating pThr^4-containing CTD peptide with the Tyr1 kinase, c-Abl (fig. S1B). […]
Serial dilutions of pThr^4 CTD peptide or Dyrk1a/Abl1 kinase-treated pThr^4 CTD peptide were spotted on an activated nitrocellulose membrane. […] The membrane was washed three times and visualized on a LI-COR Odyssey CLx image reader. […]

[5] = target: FITC-labeled pThr4 CTD peptide (16-mer, single phosphorylation at Thr4); experiment: fluorescence polarisation; CID protein titrated into 10 nM FITC-peptide; 50 mM Tris (pH 8.0), 300 mM NaCl, 10 mM BME; room temperature; triplicate; total binding model; remark: listed apart in the source
[6] = target: FITC-labeled pSer2 CTD peptide (16-mer, single phosphorylation at Ser2); experiment: as above; remark: listed apart in the source
[7] = target: T1, RNA Pol II CTD peptide CTD peptide (Homo sapiens, UniProt P24928, not fully specified (residue 2); also: pSer2 (heptad position 2, which repeat(s) not given here)); experiment: fluorescence anisotropy
T1 chain: YSPTSPSYSPTSPS

[8] = target: T2, RNA Pol II CTD peptide CTD peptide (Homo sapiens, UniProt P24928, not fully specified (residue 4); also: pThr4 (heptad position 4, which repeat(s) not given here)); experiment: fluorescence anisotropy
T2 chain: YSPTSPSYSPTSPS

[9] = system: pSer^2 Pol II in HEK293 nuclear extract; experiment: Western blot, pSer^2 recognition in HEK293 nuclear extract treated with phosphatase; type: biochemical, human; settings: HEK293 nuclear extract treated with Ssu72, antibody 3E10; vs untreated and inactive Ssu72 mutant
RNA Pol II CTD = settings: cited from earlier work
Text: The reported enrichment of pThr^4pSer^5 double phosphorylation in cells raised concerns for Thr^4 phosphorylation detection as the masking effect by adjacent phosphorylation may block pThr^4 recognition leading to false-negative results ([19]). To address this issue, we explored the possibility of eliminating the masking effect on pThr^4 antibody recognition by selectively removing the interfering phosphate groups on Ser^5 of the CTD. Our prior biochemical and structural analyses have established phosphatase Ssu72 as a highly specific phosphatase for Ser^5 of the CTD, distinguishing Ser^5 from ...

Kd [1]: 6.6 µM | Kd [2]: 8.7 µM
Molecule: RPRD2-CID (residues 19 to 149) (from UniProt Q5VT52 19-149) (domain or fragment)

response ([3]; pThr4 CTD peptide, parent: est. 87): 25 mP | response ([4]; pSer2 CTD peptide, parent: est. 110): 17 mP
Molecule: RPRD1A-CID (residues 2 to 133) (from UniProt Q96P16) R106A

response ([3]; pThr4 CTD peptide, parent: est. 77): 15 mP | response ([4]; pSer2 CTD peptide, parent: est. 170): 17 mP
Molecule: SCAF4-CID (residues 1 to 139) (from UniProt O95104) R112A

Kd [5]: 12.3 µM | Kd [6]: 13.8 µM
B2: RPRD1A-CID (residues 2 to 133) (domain or fragment)
chain: SAFSEAALEKKLSELSNSQQSVQTLSLWLIHHRKHSRPIVTVWERELRKAKPNRKLTFLYLANDVIQNSKRKGPEFTKDFAPVIVEAFKHVSSETDESCKKHLGRVLSIWEERSVYENDVLEQLKQALYGDK

Continued, molecule first:

Molecule: c-Abl: Tyr1 kinase
effect of kinase treatment on pThr^4 antibody detection (pThr^4 (6D7) antibody): does not affect pThr^4 antibody recognition

Molecule: RPRD2-CID (residues 19 to 149) (from UniProt Q5VT52) R122A
response ([3]; pThr4 CTD peptide, parent: est. 120): 16 mP | response ([4]; pSer2 CTD peptide, parent: est. 180): 16 mP

Molecule: RPRD1B-CID (residues 2 to 133) (from UniProt Q9NQG5) R106A
response ([3]; FITC-labeled pThr4 CTD peptide, parent: est. 150): 8 mP | response ([4]; FITC-labeled pSer2 CTD peptide, parent: est. 170): 8 mP

B1: RPRD1B-CID (residues 2 to 133) (domain or fragment)
chain: SSFSESALEKKLSELSNSQQSVQTLSLWLIHHRKHAGPIVSVWHRELRKAKSNRKLTFLYLANDVIQNSKRKGPEFTREFESVLVDAFSHVAREADEGCKKPLERLLNIWQERSVYGGEFIQQLKLSMEDSK
Kd [5]: 5.3 µM | Kd [6]: 22.8 µM

B3: SCAF4-CID (residues 1 to 139) (domain or fragment)
chain: MDAVNAFNQELFSLMDMKPPISRAKMILITKAAIKAIKLYKHVVQIVEKFIKKCKPEYKVPGLYVIDSIVRQSRHQFGTDKDVFGPRFSKNITATFQYLYLCPSEDKSKIVRVLNLWQKNGVFKIEIIQPLLDMAAGTS
Kd [5]: 8.1 µM | Kd [6]: 6.7 µM

B4: CHERP CID (protein)
chain: LLEETQLDMNEFDNLLQPIIDTCTKDAISAGKNWMFSNAKSPPHCELMAGHLRNRITADGAHFELRLHLIYLINDVLHHCQRKQARELLAALQKVVVPIYCTSFLAVEEDKQQKIARLLQLWEKNGYFDDSIIQQLQSPALGLGQYQ
Kd [7]: 10.7 µM | Kd [8]: 3.9 µM

B5: Ssu72: phosphatase highly specific for Ser^5 of the CTD (protein)
chain: MTDPSKLAVAVVCSSNMNRSMEAHNFLAKKGFNVRSYGTGERVKLPGMAFDKPNVYEFGTKYEDIYRDLESKDKEFYTQNGLLHMLDRNRRIKKCPERFQDTKEQFDIIVTVEERVYDLVVMHMESMESVDNRPVHVLNVDVVDNAEDALMGAFVITDMINMMAKSTDLDNDIDELIQEFEERRKRVILHSVLFY
modifications: left off: 6xHis, end not stated, state not stated | SUMO, end not stated, state not stated
pSer^2 signal recognition [9]: no significant difference | effect on Ser^5 phosphorylation on the CTD (RNA Pol II CTD; MS and biochemical assays): effectively eradicating Ser^5 phosphorylation | effect on levels of pSer^2 or pThr^4 (RNA Pol II CTD; MS and biochemical assays): no effect | activity against pSer^7 relative to pSer^5 (RNA Pol II CTD): about three magnitudes lower
